Measurements: article PMC8955265 (2022)
Each block holds one binder with its values, some of them ahead of it. Where no end group is shown, it is not given here. [ ]: non-standard residue; d: D form. pT = C[C@@H](OP(=O)(O)O)[C@H](N)C(=O)O; pS = N[C@@H](COP(=O)(O)O)C(=O)O; CF = carboxyfluorescein

Tests used:
Skp1-FBXW7 complex [1] = molecular target: T1, Skp1-FBXW7 complex (human, UniProt P63208 1-149; Q969H0 263-707); assay: FP; direct titration
Skp1-FBXW7 complex [2] = molecular target: T1, Skp1-FBXW7 complex; assay: FP; competition, unlabeled peptide

T1 sequence (P63208 1-149, chain 1 of 2): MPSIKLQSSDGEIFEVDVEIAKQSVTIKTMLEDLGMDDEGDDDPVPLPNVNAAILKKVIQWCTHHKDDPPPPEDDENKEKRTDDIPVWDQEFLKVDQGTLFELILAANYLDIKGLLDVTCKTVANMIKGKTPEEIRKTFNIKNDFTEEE
T1 sequence (Q969H0 263-707, chain 2 of 2): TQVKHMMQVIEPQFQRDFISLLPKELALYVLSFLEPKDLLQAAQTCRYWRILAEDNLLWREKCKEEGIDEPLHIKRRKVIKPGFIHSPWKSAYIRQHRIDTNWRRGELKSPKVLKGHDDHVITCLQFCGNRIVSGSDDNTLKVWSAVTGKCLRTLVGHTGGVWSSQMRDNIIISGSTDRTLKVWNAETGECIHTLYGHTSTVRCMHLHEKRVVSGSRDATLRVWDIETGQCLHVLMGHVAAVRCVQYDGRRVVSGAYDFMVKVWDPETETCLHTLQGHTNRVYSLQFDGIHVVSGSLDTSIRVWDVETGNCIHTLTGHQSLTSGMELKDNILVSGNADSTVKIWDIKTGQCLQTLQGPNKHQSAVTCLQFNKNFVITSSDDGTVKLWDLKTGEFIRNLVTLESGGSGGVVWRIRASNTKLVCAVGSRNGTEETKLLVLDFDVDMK

Kd (Skp1-FBXW7 complex [1]): 2.8 nM
B1: carboxyfluorescein (CF) labeled CCNE peptide (CF-PSGLLpTPPQpSGKKQ) (peptide)
peptide: {CF}-PSGLL[pT]PPQ[pS]GKKQ

Kd (Skp1-FBXW7 complex [2]): 15.9 nM
B2: CCNE (peptide)
chain: PSGLL[pT]PPQ[pS]GKKQ
modifications: also: N-terminal carboxyfluorescein on the labelled probe form
